# Test results from US20230357810A1, “NEOPINONE ISOMERASE AND METHODS OF USING” (Antheia, Inc., priority 2017, published 2023).
# B1: PR10-8: PR-polypeptide of Papaver somniferum similar to NISO, SEQ.ID NO: 38 (protein, listed as Papaver somniferum)
# chain: MAHHGVSGLVGKLVTQLEVNCDADEFYKIWKHHEEVPKAVSHFFPAVKVVKGDGLVSGCIKEWHYILEGKAMSAMEETTHNDETRTLHHQVVEGEVMKDYKAIASIIQVNPNPNGHGSIVTWSIEYEKMNEDSPTPFAYLEFFHQNIIDMNSHLYVGSDSHLHVDE
# B2: NISO: neopinone isomerase polypeptide of Papaver somniferum, SEQ.ID NO: 2; recombinant, His6-tagged, from E. coli (protein, listed as Papaver somniferum)
# chain: MDSVSAALVFHSSIYLCAMAHHGVSGLVGKIVTELEVNCNADEFYKILKRDEDVPRAVSDLFPPVKIAKGDGLVSGCIKEWDCVLDGKAMSGKEETTHNDETRTLRHRELEGDLMKDYKKFDSIIEVNPKPNGHGSIVTWSIEYEKMNEDSPAPFAYLASFHQNVVEVDSHLCLSE
# modifications: His6 tag
# notes: recombinant, His6-tagged, from E. coli
# B3: MorB: morphine reductase from Pseudomonas putida M10, SEQ.ID NO: 22, expressed in yeast (protein, listed as Papaver somniferum)
# chain: MPDTSFSNPGLFTPLQLGSLSLPNRVIMAPLTRSRTPDSVPGRLQQIYYGQRASAGLIISEATNISPTARGYVYTPGIWTDAQEAGWKGVVEAVHAKGGRIALQLWHVGRVSHELVQPDGQQPVAPSALKAEGAECFVEFEDGTAGLHPTSTPRALETDEIPGIVEDYRQAAQRAKRAGFDMVEVHAANACLPNQFLATGTNRRTDQYGGSIENRARFPLEVVDAVAEVFGPERVGIRLTPFLELFGLTDDEPEAMAFYLAGELDRRGLAYLHFNEPDWIGGDITYPEGFREQMRQRFKGGLIYCGNYDAGRAQARLDDNTADAVAFGRPFIANPDLPERFRLGAALNEPDPSTFYGGAEVGYTDYPFLDNGHDRLG
# Key:
# [1] = tested on: neopine formation in the presence of COR; experiment: Neopine formation with PR10-8 mutant proteins, NISO or NISO mutants and COR (FIG. 13); assay type: biochemical
# Description: Neopine formation in the presence of the mutant proteins and COR was assessed, and compared to neopine formation using COR and NISOΔ1, NISOΔ2, and NISOΔ3. In the absence of NISO, neopine constitutes about 25% of the reaction product. Neopine formation can be reduced to 5% or less in the presence of NISO. Consistent with the previous experiment, in the presence of NISOΔ1, NISOΔ2, or NISOΔ3 an increase in neopine is observed, relative to wildtype NISO. […] Thus the relatively modest sequence differences between Domains Δl, Δ2, Δ3, Δ4 of NISO and PR10-8 nevertheless are significant with respect to the ability to suppress neopine production in the presence of COR.
# thebaine = experiment: NISO-coupled T6ODM-COR-CODM assay with thebaine as substrate, LC-MS/MS; assay type: biochemical; details: CODM plus NISO vs without NISO, 100 µM thebaine, 30° C., 1 hr
# [2] = tested on: codeinone and morphinone substrates; experiment: COR-B assay alone or together with NISO, substrate conversion and products formed (FIG. 16); assay type: biochemical; details: 20 mins
# Description: Assay mixtures containing purified recombinant COR-B (~0.1 µg) alone, or purified recombinant COR-B (~0.1 µg) together with purified recombinant NISO (0.196 µg) (1:4 molar ratio), Na-ascorbate cofactor, and 1 mM NADPH, were incubated for 20 mins using one of the following substrates: codeine, neopine, morphine, neopmorphine, codeinone and morphinone. The percentages substrate conversion and products formed were determined.
# [3] = tested on: Yeast strains with chromosomally integrated T6ODM; experiment: Hydrocodone production in yeast strains with chromosomally integrated T6ODM (FIG. 14); assay type: cell-based
# [4] = COR-B and NISO together vs COR-B alone
molecule,measurement,setting,value
B1,ability to reduce neopine production,[1],unable to reduce neopine production
B2,codeine production,thebaine,increases substantially
same,morphine production,thebaine,increases
same,neopine production,thebaine,reduced
same,neopine formation (share of the reaction product),[1]; about 25% in the absence of NISO,≤ 5%
same,product codeine formed from codeinone substrate,[2]; [4],substantial increase
same,product morphine formed from morphinone substrate,[2]; [4],substantial increase
same,codeinone substrate turnover increase,[2]; COR-B plus NISO (1:4 molar ratio) vs COR-B alone,~2 fold
B3,production of hydrocodone,[3],trace amounts
